{"source": "paper PMC8849274", "about": "(Oncotarget, 2022)", "type_in_all_cases": "in vivo", "key": {"[1]": {"test": "Biodistribution in mice bearing CaSki xenografts", "conditions": "female, athymic nude, mouse, iv, total radioactivity; for tissue uptake at 1 h: 1 h p.i.; for tissue uptake at 24 h: 24 h p.i.", "text": "(§1) Animals were supplied by Charles River Laboratories (Wilmington, MA, USA), and were handled in compliance with the Guidelines for Care and Use of Research Animals established by the Division of Comparative Medicine and the Animal Studies Committee of Washington University School of Medicine under protocol #20–0214. Female athymic nude mice were inoculated on the right flank with 10 × 10^6 CaSki or 5 × 10^6 BxPC-3 cells. Tumors were allowed to grow until they approached approximately 100 mm^3 in volume. Radiolabeled peptides were diluted in saline to a dose of 0.37 MBq (10 μCi) per 100 μl. […] For blocking experiments, non-PEGylated peptide (100 μg in 100 μL saline) was injected ten minutes before radiotracer. Blood, lung, liver, spleen, kidney, muscle, heart, bone, and tumor were harvested. The amount of radioactivity in each organ was determined by gamma counting, and the percent injected dose per gram of tissue (% ID/g) was calculated."}, "[2]": {"test": "Biodistribution in mice bearing BxPC-3 xenografts", "conditions": "female, athymic nude, mouse, iv, total radioactivity, BxPC-3 tumor-bearing mice; for tissue uptake at 1 h: 1 h p.i.; for tissue uptake at 24 h: 24 h p.i.", "text": "as §1"}, "[3]": {"test": "Small animal PET/CT imaging, BxPC-3 tumors", "conditions": "female, mouse, tumor (BxPC-3 xenograft), iv, total radioactivity, athymic nude mice bearing BxPC-3 tumors, 3.7 MBq i.v., without blocking, n = 3, read-out: SUVmax of tumors", "procedure": "BxPC-3 cells (5 × 10^6) were inoculated in the right shoulder of female athymic nude mice 3–4 weeks before PET imaging sessions. All the experiments involving animals followed the Guidelines for Care and Use of Research Animals established by the Division of Comparative Medicine and the Animal Studies Committee of Washington University School of Medicine under protocol #20–0214. […] Mice were imaged with CT followed by static PET scans at 1, 4, and 24 h after tracer administration on an Inveon small animal PET/CT scanner (Siemens Medical Solutions, Malvern, PA, USA). Static images were collected for 20 min and reconstructed with the maximum a posteriori (MAP) reconstruction algorithm using the Inveon Reseach Workstation image display software (Siemens). Regions of interest (ROI) were selected based on co-registered anatomical CT images, and the associated radioactivity was measured using the Inveon software. The maximum standard uptake value (SUV) was calculated as the highest regional radioactivity concentration (nCi/cc) × animal weight (g)/decay-corrected amount of injected dose (nCi)."}}}
{"smiles": "CC(C)C[C@H](NC(=O)[C@H](CC(=O)O)NC(=O)CNC(=O)[C@H](CCCNC(=N)N)NC(=O)[C@H](CC(C)C)NC(=O)[C@H](CC(N)=O)NC(=O)[C@@H]1CCCN1C(=O)[C@@H](NC(=O)[C@H](C)NC(=O)[C@H](CC(N)=O)NC(=O)CCOCCOCCOCCOCCOCCOCCOCCOCCOCCOCCOCCOCCOCCOCCOCCOCCOCCOCCOCCOCCOCCOCCOCCOCCOCCOCCOCCOCCNC(=O)CN1CCN(CC(=O)O)Cc2cccc(n2)CN(CC(=O)O)CC1)C(C)C)C(=O)N[C@@H](CCC(N)=O)C(=O)N[C@H](C(=O)N[C@@H](CC(C)C)C(=O)N[C@@H](C)C(=O)N[C@@H](CCC(N)=O)C(=O)N[C@@H](CCCCN)C(=O)N[C@H](C(=O)N[C@@H](C)C(=O)N[C@@H](CCCNC(=N)N)C(=O)N[C@H](C(=O)NCCOCCOCCOCCOCCOCCOCCOCCOCCOCCOCCOCCOCCOCCOCCOCCOCCOCCOCCOCCOCCOCCOCCOCCOCCOCCOCCOCCOCCC(N)=O)[C@@H](C)O)C(C)C)C(C)C", "note": "[[^64Cu]Cu-PCTA-(PEG28)2-A20FMDV2, metal not drawn]", "values": [{"measurement": "tissue uptake at 1 h", "setting": "[1]; blood, CaSki tumor-bearing mice, 0.37 MBq i.v., gamma counting, mean, n = 4, read-out: Uptake in Blood", "value": 0.54, "unit": "%ID/g"}, {"measurement": "tissue uptake at 24 h", "setting": "[1]; blood, CaSki tumor-bearing mice, 0.37 MBq i.v., read-out: Radioactivity remaining in the blood", "value": "0.53 ± 0.1", "unit": "%ID/g"}, {"measurement": "tissue uptake at 1 h", "setting": "[1]; blood, CaSki tumor-bearing mice, non-PEGylated A20FMDV2 100 μg injected 10 min before radiotracer, read-out: Uptake in Blood, 1 h Block", "value": 0.76, "unit": "%ID/g"}, {"measurement": "tissue uptake at 1 h", "setting": "[1]; bone, CaSki tumor-bearing mice, 0.37 MBq i.v., gamma counting, mean, n = 4, read-out: Uptake in Bone", "value": 0.54, "unit": "%ID/g"}, {"measurement": "tissue uptake at 1 h", "setting": "[1]; bone, CaSki tumor-bearing mice, non-PEGylated A20FMDV2 100 μg injected 10 min before radiotracer, read-out: Uptake in Bone, 1 h Block", "value": 0.39, "unit": "%ID/g"}, {"measurement": "tissue uptake at 1 h", "setting": "[1]; heart, CaSki tumor-bearing mice, 0.37 MBq i.v., gamma counting, mean, n = 4, read-out: Uptake in Heart", "value": 2.46, "unit": "%ID/g"}, {"measurement": "tissue uptake at 1 h", "setting": "[1]; heart, CaSki tumor-bearing mice, non-PEGylated A20FMDV2 100 μg injected 10 min before radiotracer, read-out: Uptake in Heart, 1 h Block", "value": 0.55, "unit": "%ID/g"}, {"measurement": "tissue uptake at 1 h", "setting": "[1]; kidney, CaSki tumor-bearing mice, 0.37 MBq i.v., gamma counting, mean, n = 4, read-out: Uptake in Kidney", "value": "114 ± 38.3", "unit": "%ID/g"}, {"measurement": "tissue uptake at 24 h", "setting": "[1]; kidney, CaSki tumor-bearing mice, 0.37 MBq i.v., read-out: Uptake in Kidney", "value": "24.4 ± 6.54", "unit": "%ID/g"}, {"measurement": "tissue uptake at 1 h", "setting": "[1]; kidney, CaSki tumor-bearing mice, non-PEGylated A20FMDV2 100 μg injected 10 min before radiotracer, read-out: Uptake in Kidney, 1 h Block", "value": 43.6, "unit": "%ID/g"}, {"measurement": "tissue uptake at 1 h", "setting": "[1]; liver, CaSki tumor-bearing mice, 0.37 MBq i.v., gamma counting, mean, n = 4, read-out: Uptake in Liver", "value": 6.81, "unit": "%ID/g"}, {"measurement": "tissue uptake at 1 h", "setting": "[1]; liver, CaSki tumor-bearing mice, non-PEGylated A20FMDV2 100 μg injected 10 min before radiotracer, read-out: Uptake in Liver, 1 h Block", "value": 3.04, "unit": "%ID/g"}, {"measurement": "tissue uptake at 1 h", "setting": "[1]; lung, CaSki tumor-bearing mice, 0.37 MBq i.v., gamma counting, mean, n = 4, read-out: Uptake in Lung", "value": 3.76, "unit": "%ID/g"}, {"measurement": "tissue uptake at 1 h", "setting": "[1]; lung, CaSki tumor-bearing mice, non-PEGylated A20FMDV2 100 μg injected 10 min before radiotracer, read-out: Uptake in Lung, 1 h Block", "value": 1.43, "unit": "%ID/g"}, {"measurement": "tissue uptake at 1 h", "setting": "[1]; muscle, CaSki tumor-bearing mice, 0.37 MBq i.v., gamma counting, mean, n = 4, read-out: Uptake in Muscle", "value": 1.23, "unit": "%ID/g"}, {"measurement": "tissue uptake at 1 h", "setting": "[1]; muscle, CaSki tumor-bearing mice, non-PEGylated A20FMDV2 100 μg injected 10 min before radiotracer, read-out: Uptake in Muscle, 1 h Block", "value": 0.43, "unit": "%ID/g"}, {"measurement": "tissue uptake at 1 h", "setting": "[1]; spleen, CaSki tumor-bearing mice, 0.37 MBq i.v., gamma counting, mean, n = 4, read-out: Uptake in Spleen", "value": 0.63, "unit": "%ID/g"}, {"measurement": "tissue uptake at 1 h", "setting": "[1]; spleen, CaSki tumor-bearing mice, non-PEGylated A20FMDV2 100 μg injected 10 min before radiotracer, read-out: Uptake in Spleen, 1 h Block", "value": 0.54, "unit": "%ID/g"}, {"measurement": "tissue uptake at 1 h", "setting": "[1]; tumor (CaSki xenograft), 0.37 MBq i.v., gamma counting, mean, n = 4, read-out: Tumor Uptake", "value": "1.63 ± 0.53", "unit": "%ID/g"}, {"measurement": "tissue uptake at 1 h", "setting": "[1]; tumor (CaSki xenograft), non-PEGylated A20FMDV2 100 μg injected 10 min before radiotracer, read-out: Tumor uptake, 1 h Block", "value": "0.67 ± 0.26", "unit": "%ID/g"}, {"measurement": "tissue uptake at 1 h", "setting": "[2]; blood, 0.37 MBq i.v., gamma counting, mean, n = 4, read-out: Uptake in Blood", "value": 0.27, "unit": "%ID/g"}, {"measurement": "tissue uptake at 1 h", "setting": "[2]; blood, non-PEGylated A20FMDV2 100 μg injected 10 min before radiotracer, read-out: Uptake in Blood, 1 h Block", "value": 0.27, "unit": "%ID/g"}, {"measurement": "tissue uptake at 1 h", "setting": "[2]; bone, 0.37 MBq i.v., gamma counting, mean, n = 4, read-out: Uptake in Bone", "value": 0.38, "unit": "%ID/g"}, {"measurement": "tissue uptake at 1 h", "setting": "[2]; bone, non-PEGylated A20FMDV2 100 μg injected 10 min before radiotracer, read-out: Uptake in Bone, 1 h Block", "value": 0.66, "unit": "%ID/g"}, {"measurement": "tissue uptake at 1 h", "setting": "[2]; heart, 0.37 MBq i.v., gamma counting, mean, n = 4, read-out: Uptake in Heart", "value": 1.9, "unit": "%ID/g"}, {"measurement": "tissue uptake at 1 h", "setting": "[2]; heart, non-PEGylated A20FMDV2 100 μg injected 10 min before radiotracer, read-out: Uptake in Heart, 1 h Block", "value": 0.27, "unit": "%ID/g"}, {"measurement": "tissue uptake at 1 h", "setting": "[2]; 0.37 MBq i.v., gamma counting, mean, n = 4, read-out: Tumor Uptake", "value": "3.86 ± 0.58", "unit": "%ID/g"}, {"measurement": "tissue uptake at 1 h", "setting": "[2]; kidney, 0.37 MBq i.v., gamma counting, mean, n = 4, read-out: Uptake in Kidney", "value": "105 ± 13.6", "unit": "%ID/g"}, {"measurement": "tissue uptake at 24 h", "setting": "[2]; kidney, 0.37 MBq i.v., read-out: Uptake in Kidney", "value": "28.6 ± 8.45", "unit": "%ID/g"}, {"measurement": "tissue uptake at 1 h", "setting": "[2]; kidney, non-PEGylated A20FMDV2 100 μg injected 10 min before radiotracer, read-out: Uptake in Kidney, 1 h Block", "value": 80.6, "unit": "%ID/g"}, {"measurement": "tissue uptake at 1 h", "setting": "[2]; liver, 0.37 MBq i.v., gamma counting, mean, n = 4, read-out: Uptake in Liver", "value": 1.94, "unit": "%ID/g"}, {"measurement": "tissue uptake at 1 h", "setting": "[2]; liver, non-PEGylated A20FMDV2 100 μg injected 10 min before radiotracer, read-out: Uptake in Liver, 1 h Block", "value": 1.68, "unit": "%ID/g"}, {"measurement": "tissue uptake at 1 h", "setting": "[2]; lung, 0.37 MBq i.v., gamma counting, mean, n = 4, read-out: Uptake in Lung", "value": 2.58, "unit": "%ID/g"}, {"measurement": "tissue uptake at 1 h", "setting": "[2]; lung, non-PEGylated A20FMDV2 100 μg injected 10 min before radiotracer, read-out: Uptake in Lung, 1 h Block", "value": 1.25, "unit": "%ID/g"}, {"measurement": "tissue uptake at 1 h", "setting": "[2]; muscle, 0.37 MBq i.v., gamma counting, mean, n = 4, read-out: Uptake in Muscle", "value": 1.13, "unit": "%ID/g"}, {"measurement": "tissue uptake at 1 h", "setting": "[2]; muscle, non-PEGylated A20FMDV2 100 μg injected 10 min before radiotracer, read-out: Uptake in Muscle, 1 h Block", "value": 0.28, "unit": "%ID/g"}, {"measurement": "tissue uptake at 1 h", "setting": "[2]; spleen, 0.37 MBq i.v., gamma counting, mean, n = 4, read-out: Uptake in Spleen", "value": 0.28, "unit": "%ID/g"}, {"measurement": "tissue uptake at 1 h", "setting": "[2]; spleen, non-PEGylated A20FMDV2 100 μg injected 10 min before radiotracer, read-out: Uptake in Spleen, 1 h Block", "value": 0.24, "unit": "%ID/g"}, {"measurement": "tissue uptake at 4 h", "setting": "[2]; tumor (BxPC-3 xenograft), 0.37 MBq i.v., 4 h p.i.", "value": "3.09 ± 0.77", "unit": "%ID/g"}, {"measurement": "tissue uptake at 24 h", "setting": "[2]; tumor (BxPC-3 xenograft), 0.37 MBq i.v., read-out: Tumor Uptake", "value": "2.45 ± 0.57", "unit": "%ID/g"}, {"measurement": "tissue uptake at 1 h", "setting": "[2]; tumor (BxPC-3 xenograft), non-PEGylated A20FMDV2 100 μg injected 10 min before radiotracer, read-out: Tumor uptake, 1 h Block", "value": "0.75 ± 0.09", "unit": "%ID/g"}, {"measurement": "SUV at 1 h", "setting": "[3]; PET at 1 h", "value": "0.46 ± 0.04", "unit": "SUV"}, {"measurement": "SUV at 4 h", "setting": "[3]; PET at 4 h", "value": "0.54 ± 0.05", "unit": "SUV"}, {"measurement": "SUV at 24 h", "setting": "[3]; PET at 24 h", "value": "0.74 ± 0.21", "unit": "SUV"}]}
